molecular target: T1, Recombinant human CD4 (R&D Systems, Cat. 10327-CD) (human, UniProt P01730 26-390, limits assumed); experiment: BLI Octet, mAb on anti-mouse Fc sensor, CD4 100/50/25 nM, 1:1 global fit;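 note: antibodies loaded at 10 µg/mL, an unrelated mouse-derived antibody served as internal reference control, association and dissociation phases fitted after Savitzky-Golay smoothing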
T1 construct: Soluble analyte in the Octet assay

Kd | Response | koff | kon | Binder
2.2 nM | 0.37 | 0.00022 s⁻¹ | 100000 M⁻¹ s⁻¹ | 75110_05E13A (antibody, V domains shown, Tested as antibody purified from AlivaMab Mouse hybridoma supernatant (captured by anti-mouse IgG Fc)) VH: EVQLVESGGDLVKPGGSLRLSCAASGFSFSNAWMSWVRQAPGKGLEWVGRVESKTDGGTTDYAAPVKDRFTISRDDSKYTLYLQMNSLKTEDSAVYYCTIGGGFGLELYGFFDYWGQGTLVTVSS VL: DIQMTQSPSTLSASVGDRVTITCRASQSISSWLAWYQQKPGKAPMLLIYKASSLESGVPSRFSGSGSGTEFTLTISSLQPDDFATYYCLQYNSYYTFGQGTKLEIK
18 nM | 0.27 | 0.0018 s⁻¹ | 97000 M⁻¹ s⁻¹ | 75110_05A11A (antibody, V domains shown, Tested as antibody purified from AlivaMab Mouse hybridoma supernatant (captured by anti-mouse IgG Fc)) VH: EVQLVESGGGLVKPGGSLTLSCAASGFTFSNTWMSWVRQAPGKGLEWVGRIKSKIDGGTTDYAAPVKGRFTISRDDSKNTLYLQMNSLKTEDTAVYYCTTSGTYSSGWGLFDYWGQGTLVTVSS VL: DIQMTQSPSSLSASVGDRVTITCQASQDISNYLNWYQQKPGKAPKLLIYDTSNLEAGVPSRFSGSGSGTHFTLTISSLQPEDIATYYCQQYDNLPFTFGGGTRVEIK
13 nM | 0.09 | 0.0022 s⁻¹ | 170000 M⁻¹ s⁻¹ | 75110_05G15A (antibody, V domains shown) VH: QVQLQESGPGLVKPSQTLSLTCTVSGGSISSGGYFWSWIRQHPGKGLEWIGCIYYSGSTYYIPSLKSRVTISVDTSKNQFSLKLRSVTAADTAVYYCARDGYDYWYFDLWGRGTLVTVSS VL: not shown
< 0.001 nM | 0.18 | < 1e-07 s⁻¹ | 34000 M⁻¹ s⁻¹ | 75110_05E05A (antibody, V domains shown, Tested as antibody purified from AlivaMab Mouse hybridoma supernatant (captured by anti-mouse IgG Fc)) VH: QVQLQESGPGLVKPSETLSLTCTVSGGSIGSYYWSWIRQPAGKGLEWIGRIYTSGSTNYNPSLKSRVTMSFDTSKNQFSLKLNSVTAADTAVYYCATDGGVGDSLDYWGQGTLVTVSS VL: DIVMTQTPLSLPVTPGEPASISCRSSQSLLDSDDGNTYLDWYLQKPGQSPQLLIYTLSYRASGVPDRFSGSGSGTDFTLKISRVEAEDVGVYYCMQHIEFPFTFGPGTKVDIK
5.4 nM | 0.28 | 0.00058 s⁻¹ | 110000 M⁻¹ s⁻¹ | 75110_05B13A (antibody, V domains shown, Tested as antibody purified from AlivaMab Mouse hybridoma supernatant (captured by anti-mouse IgG Fc)) VH: QVLLEQWGAGLLKPSETLSLTCAVYGGSFSGYYWTWIRQPPGKGLEWIGEINHRGSTNYNPSLKSRVTISIDTSKNQFSLKVKSVTAADTAMYYCTRPDSNWFDPWGQGTLVTVSS VL: DIQMTQSPSSVSASVGDRVTITCRASQDISNWLAWYQQKPGKAPKLLIFAASSLQSGVPSRFSGSGSGTDFTLTISSLQPEDFATYYCQQANSFPLTFGGGTKVEIK

Further lines, the binder ahead of its results:

Binder | Kd | Response | koff | kon
75110_04H17A (antibody, V domains shown, Tested as antibody purified from AlivaMab Mouse hybridoma supernatant (captured by anti-mouse IgG Fc)) VH: QVQLQESGPGLVKPSETLSLTCTVSGGSISTYYWSWIRQSAGKGLEWIGRIYTSERPNYNPSLKSRVTMSVDTSKNQFSLKLNSVSAADTAVYYCARELERPYYYGMDVWGQGTTVTVSS VL: DVQMTQSPSSLSASVGGRVTITCQASQDISNYLNWYQQKPGKAPKLLIYYASNLETGVPSRFSGSGSGTDFTFTISSLQPEDFATYYCQQYDNLPLTFGGGTKVEIK | 0.25 nM | 0.15 | 1.8e-05 s⁻¹ | 73000 M⁻¹ s⁻¹
75110_04G02A (antibody, V domains shown, Tested as antibody purified from AlivaMab Mouse hybridoma supernatant (captured by anti-mouse IgG Fc)) VH: not shown VL: DIVMTQSPDSLAVSLGERATINCKSSQSVLYSSNNKNYLAWYQQKPGQPPKLLFYWASARESGVPDRFSGSGSGTDFTLTISSLQAEDVALYYCQQYFGSFPTFGQGTKLEIK | 16 nM | 0.17 | 0.0015 s⁻¹ | 90000 M⁻¹ s⁻¹
75110_03I23A (antibody, V domains shown, Tested as antibody purified from AlivaMab Mouse hybridoma supernatant (captured by anti-mouse IgG Fc)) VH: QVQLQESGPGLVKPSETLSLTCTASGGSITSYYWNWIRQPAGKGLEWIGRIYTSGSTNYNPSLKSRVTMSVDTSKNQFSLKLSSVTAADTAVYYCARDPGYSDAFNIWGQGTMVTVSS VL: not shown | < 0.001 nM | 0.18 | < 1e-07 s⁻¹ | 80000 M⁻¹ s⁻¹
75110_04G16A (antibody, V domains shown, Tested as antibody purified from AlivaMab Mouse hybridoma supernatant (captured by anti-mouse IgG Fc)) VH: QVQLQESGPGLVKPSQTLSLTCTVSGDSISSGYYYWSWIRQHPGKGLEWIGYISYSGSTYYNPSLKSRLTISVNTSKNQFSLKLSSLTAADTAVYYCARDRPSNFDAFDIWGQGTMVTVSS VL: EIVLTQSPGTLSLSPGERATLSCRASQSVGSTYLAWYQQKPGQAPRLLIYGAFSRATGIPDRFSGSGSGTDFTLTISRLEPEDFAVYYCQQYGSSPLTFGPGTKVDIK | 5.3 nM | 0.23 | 0.00047 s⁻¹ | 89000 M⁻¹ s⁻¹
75110_04D20A (antibody, V domains shown, Tested as antibody purified from AlivaMab Mouse hybridoma supernatant (captured by anti-mouse IgG Fc)) VH: QVQLQESGPGLVKPSETLSLTCTVSNGSISDYYWSWIRQPAGKGLEWIGRIYTSGSTNYNPSLKSRITMSVDTSKNQFSLELSSVTAADTAVYYCARELERYYFYGVDVWGQGTTVTVSS VL: not shown | 8.9 nM | 0.14 | 0.0008 s⁻¹ | 90000 M⁻¹ s⁻¹
75110_04B08A (antibody, V domains shown, Tested as antibody purified from AlivaMab Mouse hybridoma supernatant (captured by anti-mouse IgG Fc)) VH: QVQLVESGGGVVQPGRSLRLSCTASGFNFINYGIHWVRQAPGKGLEWVTIIWYDGSKKYYADSVKGRFAISRDNSKNTLYLQMNSLRAEDTAVYYCAREDDWNDGLAYWGQGTLVTVSS VL: AIQMTQSPSSLSASVGDRVTITCRASQDIRNDLGWYQQKPGKAPNLLIYAASNLQSGVPSRFSGSGSGTDFTLTISSLQPEDFATYYCLQDSNYPRTFGQGTKVEIK | 17 nM | 0.25 | 0.0037 s⁻¹ | 220000 M⁻¹ s⁻¹
75110_03I08A (antibody, V domains shown, Tested as antibody purified from AlivaMab Mouse hybridoma supernatant (captured by anti-mouse IgG Fc)) VH: QVQLQESGPGLVKPSETLSLTCTVSGGSISSYYWSWIRQPPGKGLEWIGYIYYSGSTNYNPSLKSRVTISVDTSKNQFSLKLSSVTAADTAVYYCAREGEQWFYGLDVWGQGTTVTVSS VL: EIVLTQSPGTLSLSPGERATLSCRASQSVSSTYLAWYQQKPGQAPRLLIYGSSSRATGIPDRFSGSGSGTDFTLTISRLEPEDFAVYYCQQYGNSFPITFGQGTRLEIK | 8.8 nM | 0.14 | 0.0011 s⁻¹ | 130000 M⁻¹ s⁻¹
75110_04P08A (antibody, V domains shown, Tested as antibody purified from AlivaMab Mouse hybridoma supernatant (captured by anti-mouse IgG Fc)) VH: QVQLQQWGAGLLKPSETLSLTCAVYGGSLSGYYWSWIRQSPGKGLEWIGEINQSGSTNYNPSLKSRVTISVDTSKDQFSLRLTSVTAADTAVYYCTRVLNWFDPWGRGTLVTVSS VL: DIQMTQSPSSVSASVGDRVTLTCRASQDISNWLAWYQQKPGKAPKLLIYAASSLQSGVPSRFSGSGSGTDFTLTISSLQTEDFATYYCQQANSFPYTFGQGTKLEIK | 3.6 nM | 0.23 | 0.0005 s⁻¹ | 140000 M⁻¹ s⁻¹

molecular target: T2, Rhesus macaque CD4-HIS (Acro Biosystems, Cat. CD4-C52H7) (rhesus macaque, UniProt P16003 26-390); experiment: BLI (Octet Red384); Ab on anti-mouse Fc (AMC) sensor; rhesus CD4-HIS 100/50/25 nM; global 1:1 fit;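 note: antibodies loaded at 10 µg/mL, an unrelated mouse-derived antibody served as internal reference, curves fit over association and dissociation phases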
T2 construct: Bought reagent; also called Rhesus CD4; rhesus CD4-HIS; not shown: His tag
T2 sequence (P16003 26-390 limits assumed): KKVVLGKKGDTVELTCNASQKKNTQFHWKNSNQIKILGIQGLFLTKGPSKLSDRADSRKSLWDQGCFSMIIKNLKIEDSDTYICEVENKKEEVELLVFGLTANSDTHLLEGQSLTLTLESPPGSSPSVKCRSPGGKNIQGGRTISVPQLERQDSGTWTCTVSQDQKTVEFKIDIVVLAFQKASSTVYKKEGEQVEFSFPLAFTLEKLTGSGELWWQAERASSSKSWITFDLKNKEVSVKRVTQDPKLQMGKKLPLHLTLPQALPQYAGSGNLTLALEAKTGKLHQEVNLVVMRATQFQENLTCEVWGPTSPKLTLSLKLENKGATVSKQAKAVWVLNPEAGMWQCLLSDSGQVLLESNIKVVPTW

Kd | Response | koff | kon | Binder
53 nM | 0.05 | 0.0017 s⁻¹ | 32000 M⁻¹ s⁻¹ | 75110_08D24A (antibody, V domains shown, Tested as antibody purified from AlivaMab Mouse hybridoma supernatant (human variable domains, kappa; mouse Fc, captured on anti-mouse IgG Fc sensors); also called ADS75110 purified AMM Ab) VH: QVQLQESGPGLVKPSETLSLTCTVSGGSISGFYWSWIRQPAGKGLEWIGRIYTSENTNYNPSLKSRVTMSVDTSKNQFSLKLSSVTAADTAVYYCARDREGYYYYGMDVWGQGTTVTVSS VL: DIQMTQSPSSLSASVGDRVTITCQASQDISNYLNWYQQKPGKAPKLLIYAASNLETGVPSRFSGSGSGTDFTFTISSLQPEDIATYYCQQYDSLPITFGQGTRLEIK
27 nM | 0.15 | 0.002 s⁻¹ | 73000 M⁻¹ s⁻¹ | 75110_06C16A (antibody, V domains shown, Tested as antibody purified from AlivaMab Mouse hybridoma supernatant (human variable domains, kappa; mouse Fc, captured on anti-mouse IgG Fc sensors); also called ADS75110 purified AMM Ab) VH: QVQLQESGPGLVTPSETLSLSCTVSGGSISDYYWSWIRQPGGKGLEWIGRIYSSGSTNYNPSLKSRVTMSVDTSKNQFSLKLSSVTAADTAVYFCARDREDYYYYGMDVWGQGTTVTVSS VL: DIQMTQSPSSLSASVGDRVTITCQASHDISNYLNWYQQKPGKAPKLLIYAASNLETGVPSRFSGSGSGTDFSFTISSLQPEDIATYYCQQYDHLPLTFGGGTKVEIK
2.1 nM | 0.05 | 0.0011 s⁻¹ | 510000 M⁻¹ s⁻¹ | 75110_06G04A (antibody, V domains shown, Tested as antibody purified from AlivaMab Mouse hybridoma supernatant (human variable domains, kappa; mouse Fc, captured on anti-mouse IgG Fc sensors); also called ADS75110 purified AMM Ab) VH: QVQLLESGPGLVKPSETLSLTCTVSGGSISSYYWSWIRQPAGKGLEWIGRIYISGSTNYNPSLKSRVTMSIDTSENQFSLNLSSVTAADTAVYYCARELERPYYYGMDVWGQGTTVTVSS VL: DIQMTQSPSSLSASVGDRVTITCQASQDISNYLNWYQQKPGKAPKLLIYNASTLETGVPSRFSGSGSGTDFTFTISSLQPEDIATYYCQQYDNLPLTFGGGTKVEFK
17 nM | 0.17 | 0.0022 s⁻¹ | 130000 M⁻¹ s⁻¹ | 75110_08M20A (antibody, V domains shown, Tested as antibody purified from AlivaMab Mouse hybridoma supernatant (human variable domains, kappa; mouse Fc, captured on anti-mouse IgG Fc sensors); also called ADS75110 purified AMM Ab) VH: QVQLQESDPGLVKPSETLSLTCTVSGGSISSYYWSWIRQPAGKGLEWIGRIYASGSTNYNPSLKSRVTMSVDTSKNQFSLKLSSVTAADTAVYYCARDREGYYYYGMDVWGQGTTVTVSS VL: DIQMTQSPSSLSASVGDRVTITCQASQDISKYLNWYQQKPGKAPNLLIYAASNLETGVPSRFSGSGSGTDFTFTISSLQPEDIAAYYCQQYDSLPITFGQGTRLEIK
230 nM | 0.1 | 0.00069 s⁻¹ | 3000 M⁻¹ s⁻¹ | 75110_06E14A (antibody, V domains shown, Tested as antibody purified from AlivaMab Mouse hybridoma supernatant (human variable domains, kappa; mouse Fc, captured on anti-mouse IgG Fc sensors); also called ADS75110 purified AMM Ab) VH: QVQLQESGPGLVKPSETLSLTCTVSGGSISNYFWSWIRQPAGKGLEWIGRIYSSGNTNYNPSLKSRVTMSVDTSKNQFSLKLSSVTAADTAVYYCARDREDYYYYGMDVWGQGTTVTVSS VL: DIQMTQSPSSLSASVGDRVTITCQASQDISNYLNWYQQKPGKAPKLLIYGASILETGVPSRFTGSGSGTDFTFTISSLQPEDIATYYCQQYDSLPITFGQGTRLEIK
240 nM | 0.09 | 0.022 s⁻¹ | 91000 M⁻¹ s⁻¹ | 75110_06D16A (antibody, V domains shown, Tested as antibody purified from AlivaMab Mouse hybridoma supernatant (human variable domains, kappa; mouse Fc, captured on anti-mouse IgG Fc sensors); also called ADS75110 purified AMM Ab) VH: QVQLQQWGAGLLKPSETLSLTCAVYGGSFSGYYWSWIRQPPGKGLEWIGEINHSGSTNYNPSLKSRVTISVVTSKNQFSLKLSSVTAADTAVYYCARVLNWFDPWGQGTLVTVSS VL: DIQMTQSPSSVSASVGDRVTITCRASQDIADWLAWYQQKPGKAPKLLIYAASSFQSGVPSRFSGSGSGTDFTLTISSLQPEDFATYFCQQANSFPYTFGQGTKLEIK
7.6 nM | 0.31 | 0.0011 s⁻¹ | 150000 M⁻¹ s⁻¹ | 75110_05L07A (antibody, V domains shown, Tested as antibody purified from AlivaMab Mouse hybridoma supernatant (human variable domains, kappa; mouse Fc, captured on anti-mouse IgG Fc sensors); also called ADS75110 purified AMM Ab) VH: EVQLVESGGGLVQPGGSLRLSCAASGFTFSSYWMSWVRQAPGKGLEWVANINQDGSDKYYVDSVKGRFTISRDNVKNSLYLQINSLRAEDTAVYYCAREGGQWLTLDYWGQGTLVTVSS VL: not shown

— US20220112288A1 (published 2022)
